# Assay results taken from the nanobody polyreactivity screen of Harvey et al. (2022).
# Test: yeast display, Sf9 membrane polyspecificity reagent, FACS + sequencing; frameworks hold sequencing errors
# How it was run: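 Sorting gates, low and high (top ~1%), were placed on anti-HA fluorescence to track expression and on streptavidin fluorescence to track reagent binding. A clone's polyreactivity label is taken from the gate it came out of. The reagent was 10% biotinylated, detergent-solubilized Sf9 membrane, applied for 1 hour at 4 °C to galactose-induced yeast display cells.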
row,Sequence,polyreactivity (PSR sort gate)
1,QVQLVESGGGLVQAGGSLRLSCAASGSIFGLYAMGWYRQAPGKERELVAAINQSGGSTSYADSVKGRFTISRDNAKNTVYLQMNSLKPEDNAVYYCNRVRLNTEGFDYWGQGTQVTVSS,low polyreactivity
2,QVQLVESGGGLVQAGGSLRLSCAASGSIFGLYAMGWYRQAPGKERELVAAITVSGGSTYYADSVKGRFTISRDNAKNTVYLQMNSLKPEDTAVYYCAARAGWPLYQYYYWGQGTQVTVSS,high polyreactivity
3,QVQLVESGGGLVQAGGSLRLSCAASGSIFGLYAMGWYRQAPGKERELVAGITYSGGSTYYADSVKGRFTISRDNAKNTVYLQLNSLKPEDTAVYYCNTRYWRGWYAYYYWGQGTQVTVSS,high polyreactivity
4,QVQLVESGGGLVQAGGSLRLSCAASGSIFGNNAMGWYRKAPGKERELVAAISSGGSTKYADSVKGRFTISRDNAKNTVYLQMNSLKPEDTAVYYCAKDSWSRAYSWATRVHWRYDYWGQGTQVTVSS,low polyreactivity
5,QVQLVESGGGLVQAGGSLRLSCAASGSIFGNYAMGWYRQAPGKERELVAGISKSGGRTYYADSVKGRFTISRDNAKITVYLQMNRLKPEDTAVYYCNALVTRYQSLDRLGDYWGQGTQVTVSS,high polyreactivity
6,QVQLVESGGGLVQAGGSLRLSCAASGSIFGPNAMGWYRQAPGKERELVAAITSGSSTKYADSVKGRFTISRDNAKNPVYLQMNSLKPEDTAVYYCAASGTTTWKYGYWGQGTQVTVSS,low polyreactivity
7,QVQLVESGGGLVQAGGSLRLSCAASGSIFGPYAMGWYRQAHGKERELVAAITISGGSTYYADSVKRRFTISRDNAKNTVYLQINSLKPEDTAVYYCAADYWVDYEYDYYWEYNYWGQGSQVTVSS,high polyreactivity
8,QVQLVESGGGLVQAGGSLRLSCAASGSIFGPYAMGWYRQAPGKERELVAAITWSGDSTYYADSVKGRFTISRDNAKNTVYLQMNSLKTEDTAVYYCAAETFIWGQGTQVTVSS,low polyreactivity
9,QVQLVESGGGLVQAGGSLRLSCAASGSIFGPYAMGWYRQAPGKERELVAAITWTGGRTYYADSVKGRFTISRDNAKNTVYLQMISLNPEDTAVYYCAADYSPSTWYLYYTLFYYWGQGTQVTVSS,low polyreactivity
10,QVQLVESGGGLVQAGGSLRLSCAASGSIFGPYAMGWYRQAPGKERELVAGITRSVGSTYYADSVKGRFTISRDNAKNTVFLQMNSLKPEDTAVYYCNAKWLYSRWAGYDYWGQGTQVTVSS,low polyreactivity
11,QVQLVESGGGLVQAGGSLRLSCAASGSIFGPYAMVWYRQAPGKERELVAAISSRGSSTYYADSVKGRFTISRDNAKNTVYLQMNSLKPEDTAVYYCAALYYVYGYDYWGQGTQVTVSS,high polyreactivity
12,QVQLVESGGGLVQAGGSLRLSCAASGSIFGQYVMGWYRQAPGKERELVAAITRRGGTTYYADSVKGRFTISRDNAKNTVYLQMNSLKPEDTAVYYCAARVRVPQTARLHEYWGQGTQVTVSS,high polyreactivity
13,QVQLVESGGGLVQAGGSLRLSCAASGSIFGRNAMGSSRQAPGKERELVAAITWSGDSTYYADSVKGRFTISRDNAKNTVYLLMNSLKPEDTAVYYCAAGTATDVASIGATKDYDYWGQGTQVTVSS,low polyreactivity
14,QVQLVESGGGLVQAGGSLRLSCAASGSIFGRNAMGWYRQAPGKEREFVATITSRGGRTYYADSVKGRFTISRDNAKNTVYLQMNSLKPEDTAVYYCAADTYISTLKKYRLGDYWGQGTQVTVSS,low polyreactivity
15,QVQLVESGGGLVQAGGSLRLSCAASGSIFGRNAMGWYRQAPGKERELVAAINSGGSTNYADSVKGRFTISRDNAKNTVYLQMNSLKPEDTAVYYCAARTYSSGRYYGYVAFYYWGQGTQVTVSS,high polyreactivity
16,QVQLVESGGGLVQAGGSLRLSCAASGSIFGRNAMGWYRQAPGKERELVAVISKRSGNTYYADSVKGRFTISRDNAKNTVYLQLNSLKPEDTAVYYCNAVDQKLLRYDYWGQGTQVTVSS,high polyreactivity
17,QVQLVESGGGLVQAGGSLRLSCAASGSIFGRNAMGWYRQEPGKERELVARISYIGGSTYYADSVKGRFTISRDNAKNTVYLQMNSLKPEDTAVYYCAKRYGFRYKRMDYWGQGTQVTVSS,low polyreactivity
18,QVQLVESGGGLVQAGGSLRLSCAASGSIFGRNVMGWYRQAPGKERELVARITRGGSTNYADSVKGRFTISRDNAKNTVYLQMNRLQPEDTAVYYCAAGARQYRGVPDRYGYWGQGTQVTVSS,low polyreactivity
19,QVQLVESGGGLVQAGGSLRLSCAASGSIFGRYAMGLYRQAPGKERELVATISRTGGSTNYADSVKGRFTISRDNAKNTVSLQMNSLKPEDTAVYYCNAASVYANYYTYVDYYTEGFYYWGQGTQVTVSS,low polyreactivity
20,QVQLVESGGGLVQAGGSLRLSCAASGSIFGRYAMGWYRQAPGKERELVAAISRTGVSTYYADSVKGRFTISRDNAKNTVYLQMNSLKPEDTAVYYCNAVRLSWQNTYYYWGQGTQVTVSS,high polyreactivity
21,QVQLVESGGGLVQAGGSLRLSCAASGSIFGRYAMGWYRQAPGKERELVAAISWNGGSTYYADSVKGRFTISRDNAKNTVYLQMNILKPEDTAVYYCAADSGYSGYYYWGQGTQVTVSS,high polyreactivity
22,QVQLVESGGGLVQAGGSLRLSCAASGSIFGRYAMGWYRQAPGKERELVAAITRSGVSTYYADSVKGRFTISGDYAKNTVYLQMNSLKPEETAVYYCNAYYRIRSSPYGYYYWGEGTQVTVSS,high polyreactivity

row,Sequence,polyreactivity (PSR sort gate)
1,QVQLVESGGGLVQAGGSLRLSCAASGSIFGRYGAIGWYRQAPGKERELVAAINRSGGITYYADSVKGRFTISRDNAKNTVYLQMNSLKPEDTAVYYFNADAYYYSTSPRGAFDWPYDYWGQGTQVNVSS,low polyreactivity
2,QVQLVESGGGLVQAGGSLRLSCAASGSIFGRYTMGWYRQAPGKERELVARIRSGGTTYYADSVKGRFTISRDNAKNTVYLQMNSLKPEDTAVYYCAAGRDARDYYSWGQGTQVTVSS,high polyreactivity
3,QVQLVESGGGLVQAGGSLRLSCAASGSIFGRYVKGWYRQAPGKERELVATISSGGSTYYADSVKGRFTISRDNAKNTVYFQMISLKPEDTAVYYCAASYSRFVDWIGDPGYDYWGQGTQVTVSS,low polyreactivity
4,QVQLVESGGGLVQAGGSLRLSCAASGSIFGRYVKGWYRQAPGKERELVATISSGGSTYYADSVKGRFTISRDNAKNTVYLQMNSLKPEDTAVYYCAASYSRFVDWIGDPGYDYWGQGTQVTVSS,low polyreactivity
5,QVQLVESGGGLVQAGGSLRLSCAASGSIFGRYVMGWYRQAPGKEREFVAAITYSGSSTYYADSVKGRFTISRDNAKNTVYLQMNSLKPEDTAVYYCNTYPRSFYWMGYWGQGTQVTVSS,high polyreactivity
6,QVQLVESGGGLVQAGGSLRLSCAASGSIFGSYAKGCYIQAPGKERELVAAITRAGSTNYADSVKGRFTISRDNGKNTVYLQMNSLKPEDTAVYYCNATGKSTYVLSPVPGAYDYWGQGTQVTVSS,low polyreactivity
7,QVQLVESGGGLVQAGGSLRLSCAASGSIFGSYAMGWYRQAPGKEMELVAAISGSGGRTYYADSVKGRFTISRDNAKNTVYLKMNSLKPEDTAVYYCSAAYPRVTYKYGYYWGQGTQVTVSS,high polyreactivity
8,QVQLVESGGGLVQAGGSLRLSCAASGSIFGSYAMGWYRQAPGKERALVAAMSRSGITYYADSVKGRFTISRDNAKNTVYLQMNSLKPEDTAVYYCNADVSWWGYHYDYWGQGTQVTVLS,high polyreactivity
9,QVQLVESGGGLVQAGGSLRLSCAASGSIFGSYAMGWYRQAPGKERELVAAIRWRGGSTYYADSVKGRFTISRDNAKNTVYLQMNSLKPEDTAVYYCNAVTHYPVWVSGVGYDYWGQGTQVTVSS,high polyreactivity
10,QVQLVESGGGLVQAGGSLRLSCAASGSIFGSYAMGWYRQAPGKERELVAAISYRGGRTYYADSVKGRFTISRDNAKNSVYLQMNSLKPEDTAVYYCNARARNSPPYDYWGQGTQVTVSS,high polyreactivity
11,QVQLVESGGGLVQAGGSLRLSCAASGSIFGSYAMGWYRQAPGKERELVAAITSGGSTHYADSVKGRFTISRDNAKNTVYLQMNSLKPEDTAVYYCNAQALRLFWRYDYWGLGTQVTVSS,low polyreactivity
12,QVQLVESGGGLVQAGGSLRLSCAASGSIFGSYTMGWYRQAPGKERELVAAISLGGGSTYYADSVKGRFTISRDNAKNTVYLQMNSLKPEDTAVYYCAAVQIVSGTYDYYWGQGTQVTVSS,low polyreactivity
13,QVQLVESGGGLVQAGGSLRLSCAASGSIFGSYVMGWYRQAPGKERELVAAISKSGGRTYYADSVKGRFTISRDNAKNTVYLQMKSLKPEDTAVYYCAVLPRVKDGTGGDYWGHGTQVTVSS,high polyreactivity
14,QVQLVESGGGLVQAGGSLRLSCAASGSIFGTNAMGGYRQAPGKETELVADISGSGGTTYYADSVKGRFTISRDNAKNTVDLQMNSLKPEDTAVYYCAAKGRAGYGYTAYANDYGGQGTQVTVSS,low polyreactivity
15,QVQLVESGGGLVQAGGSLRLSCAASGSIFGTNAMGWYRPAPGKERELVAAINWSGGTTYYADSVKGRFTISRDNAKNTVYLQMNSLKPEDTAVYYCNADIEKSYNYWGQGTQVTVSS,low polyreactivity
16,QVQLVESGGGLVQAGGSLRLSCAASGSIFGTNAMGWYRQAPGKERELVAAISLSTGSTYYADSVKGRFTISRDNAKNNVYLQMNSLKPEYTAVYYCAAYYVTPIYYYWGQGSQVTVSS,low polyreactivity
17,QVQLVESGGGLVQAGGSLRLSCAASGSIFGTNAMGWYRQAPGKERELVAVISDGGSTYYADSVKGRFTISRDNAKNTVYLQMNSLKPEDTAVYYCNTPLESPFYSRFGTTESDHWGQGTQVTVSS,low polyreactivity
18,QVQLVESGGGLVQAGGSLRLSCAASGSIFGTNTMGWYRQAPGKEREFVAVITGSTTSTYYADSVKWRFTISRDNANNTVYLQMNSLIPEDTAVYYCADEPGSRSYGGDYWGQGTQVTVSS,high polyreactivity
19,QVQLVESGGGLVQAGGSLRLSCAASGSIFGTNTMGWYRQAPGKERELVAAIRLSDSSTYYADSVKGRFTISRDNAKNSFYLQMNSLKPVDTAVYYCAVDYRAYHYYRYDYWGQGTQVTVSS,low polyreactivity
20,QVQLVESGGGLVQAGGSLRLSCAASGSIFGTYAMGWYRQAPGKEREFVAAISWSDGSTYYADSVKGRFTISRDNAKNTVYLQMNSLNPEDTAVYYCAVRRVGSIYIDRYIYVVADYDYWGQGTQVTVSS,low polyreactivity
21,QVQLVESGGGLVQAGGSLRLSCAASGSIFGTYAMGWYRQAPGKERELVAAITGNGGRTYYADSVKGRFTISRDNAKNTVYLQMNSLKPEDTAVYYCAKATSRRGFYYWGQGTQVTVSS,high polyreactivity
